Data reported in patent publication US20260241035A1, “FUNCTIONAL NUCLEIC ACID MOLECULE AND METHOD” (THE UNIVERSITY COURT OF THE UNIVERSITY OF EDINBURGH, priority 2022, published 2026).

B1: ID2082: enhancer fragment, SEQ ID NO: 28 (nucleic acid)
DNA: ACAGAAGCCGTTGCTGCAGTAACCACTGCCGCAAGAGCAACTTTGGCAGCAGGCAGGTGCCAGGCAGCAAGCTGAGAGAACACTGACAGATTCAAAGTGTCTTCAGATACAAGGCTTTGTTTGTGCACAGTGAACAAAGGGCATATTGGGAAGGCCTCC
B2: CSE222: clustered SOX dimer motif enhancer, SEQ ID NO: 39 (nucleic acid)
DNA: CTCTTTGGGTCTAGGTATCATTTTGGGATCACATCATGATAACTCTATGTGTGTGTGCTGGGAGGGCAAAGTTGCAAAGCAATTACTCAGCAATGCTGAAGAAAGAAGCAATTACTGGAACACATTTTAGCCCCGCTTGTCAGAGTGACTTTCACTGGGGCACAAGGGAAGCATTCACTTAGGCAGTATCCCTTTCAGAGGCTTAATTTAGTTTTTTCTTCCCTTTAATTGTGTGATTCCAGTATTTTAGCTACAATCCCTAGGCTGTAGGAACCTTTAAACACTTCTTTTTATAAAAGAAATGCATGGGCTTTTGAAGAATAAACAGGGGGCTGCATAATTTATAGGAAAATGGCACCATGGACTTTTCCTTCACAAAGAACATTGGGGTTACATTGGAACAAGCCAAATATGTTTTTAATGAATAGTCAGTAATCAGCAGCAGCTACAGTAAGTGCTTGAAATTTTTCTTTTATGTGCTATGAGTCCACAAACTAAGCATCTGATTCTGATTGCAGCCATGA
B3: ID2816: enhancer fragment, SEQ ID NO: 31 (nucleic acid)
DNA: TTCCTGCATCTGGCCCTCTTTGAGAGCCCCTTGTGTGCCAATGACAAACCCTTCTTTATTTAAGCTCCTCTGAAGTGCCTTCCTGGTCTTGGCAGCTGGACAGGGCCCTGAATAAGACAGCGAGCCTCAATGGCAGGCTACCCCAGGGCTGGGTGACGTA
B4: ID0403-2: enhancer fragment, SEQ ID NO: 33 (nucleic acid)
DNA: ATGTTAAACAGTGAAATCATCAGCAAAAAGCACAAAACTGCAGAAAACATGGCACTAAATAGAACACAAAAAGGACACTTGTTTACAGTATGAGAGCAGAAACAAGGAAACAGTGTTTCCTTGTTCAGCCACAGCTGGGACCTTGTGTGT
B5: ID0403-1: enhancer fragment, SEQ ID NO: 32 (nucleic acid)
DNA: TGCCTCTCTTCCATTGGCATTGGAGTGGCTATAGGCCTTTGGAGGACCTGGCAAAGGGGAAGTTGATTTAGGGGTTCATTGAATTGAGGGGAAGTATGTAAGTGGTTTGCAGTCACTTCCTTGTGTGGTACTCTTGTATAGTAATGATTTCCTGGAATA
B6: ID1667: enhancer fragment, SEQ ID NO: 30 (nucleic acid)
DNA: ACCCTTTGCAGAGAGGAAAGAGAAAGGAGGTCTCCTGTTGGGGAGATCTGCTTTAGAGGTTAGGAAGAATGGTGGAGTTGTAAGACATTGGAATCACTGTCTAGGAAGGACAGTGGCCTTTTATCCAGGGCTATTTAAAAACAGACAGAGCTTCATCTAT
B7: CSE194: clustered SOX dimer motif enhancer, SEQ ID NO: 37 (nucleic acid)
DNA: ATCTCATATATGTGTATATGTATTTATGATTTACATATATACAGACGTATCACACACTCCGAATAGAATACAGATTTCCTTCAATGACAGCAACAACTCAATGACCCGCCCACTAGCATGGCTAAAATACTAAACCACTAGATAGCTTTATGTGAACTTGAGCTTGATTGTTTCTTAGCTCTGCTTCAGAACCTCATGATCATGTGCATGCAATTTCTACAGAAGCGGAAACGTAGATGCTGTGGGTCAGTGAGCATTCCTTTCCAGGGTGCTTCTGAGATGAAGCCCCACGATTAACACAGGGCCCTTAATGATGGGCGGGGGACTAAGCATTCCAAGATTGGCCTGGATTCCTGCCAGAAGGGAGAGAAAGGGGTCTTTGTATGTGGACATCTGAAGGGCGGGCATAAACATGTTAGTTGATACTTAACACCCAAAACCAGTGCCAAAACCGTTAGCTCCCCTCAATAGCCTACTCTGGTTTCAACTGTCCGCGACAATGGAGCAGCCACCTCAATATACAAAACTTGCTCTTTAAACATCCTCAGAGGAATTCCCAAAATAGCAGCTGTTAGAAGCAAACAGACTCTAATTCATTGACATATGCAGACCTTTTAATGTTTTTCTGGTGACGTTTACATTTTTTTTTGTACCTACGCCATCTATGCATTTTTAATAATTACCTTGTAGATTACGTATGCAATCCCTCCAGGCACTTGAAGAAGGAGCCCCGGGATTCATCATCAGATGAAATTGTTAGTTTTTACGGCAAGAGGCCCAGCTAATTTATGCGGGGAATTTTTCAGACGTTTTTCCTCTGGGCTCCCTTCCCTGCTGTCCTCGCGCCTTTCTTCCTCAGTACATTAAGAGATTCTGATGTGCCTGCAGCA
B8: ID0109: enhancer fragment, SEQ ID NO: 6 (nucleic acid)
DNA: GAAATTGGATCCTGAGGAGAATGTCACCACCTCTTTGACAATAACTAGCTTTCAGAGCTGAACACAGTGAATCTGGATACTGTGTATATGTTTAAATGAGTTAGGAAATGACATCACATTATTTATTTCTTCTTTTGTGACTTAGTAAATTGACTTGGCC
B9: ID3499: enhancer fragment, SEQ ID NO: 36 (nucleic acid)
DNA: AAGAATGAACTGGGCCCAGCTGGGCATTTGCATCAAAGTGCCTCACCAGAGTTCCCAGCTGCTCTGGCAGAGTGCCCAGGCTTGCCCCAGAGCCCAAACAGAATGCTCTTTGAGATGCCTCTGGTTTTCA
modifications: listed as DNA, chemistry not given here
B10: ID4035: enhancer fragment, SEQ ID NO: 29 (nucleic acid)
DNA: CCCAGACTGCCATCTCCACGGCCCCCACACCAGCACACAGATGCCTCATTCACGTGGTGCTCCCAGGGCCTGGCACCAGTTCTGAGGCTTAAAATAGGCACACAACGGGCCTTTGTCGGATAGAGGAAGGAAGGAAGGAGCGTTTCAGACAAAGGAGACA
B11: ID4431: enhancer fragment, SEQ ID NO: 35 (nucleic acid)
DNA: AAATGGTGATTATCATCATTTGTTCAGGGACATTAGCATGAAGGCCGAATGTTCTGGCACAAAGACACGTCTGTGGGACAGGCAC
modifications: listed as DNA, chemistry not given here
B12: CSE208: clustered SOX dimer motif enhancer, SEQ ID NO: 38 (nucleic acid)
DNA: AGATAAAGCCAGAAATAAAAGGGAAAGAAACAGTTATATGATTTTGGTGGGAATTTGCAGAAATACAGGCTGAAGCTGAAGTCTTCCATCAGGTGAGGTTTTTTCCATTGATCTCATCTCTCGGGCTCAGCTCTTTTATCTCCAGCGCATTTTGGATGTGGCTTCTCTTTCCACCTGCTGGGCCTTTAGATAGAGTACTTCCTTTTGTTTCAAGGTAGCATTTAACTGAGTCTGGAAAAACCATCATTAAGGGAAAATAAAGCTGAAAGATGAATTGAAAACTATGTAAAAGGGCCCTTTCAGGCTGCCGGAGAGATTGCCTTTCCAGCCTAATGAGCCTGTGCTGCCTCTGATTCAGATGGTGCAAGGACAGGAGAAAAGAATGGAGTTTTGTGCACTGCGATTTTCCAAAGCACATAATGCTTAGTCATTTGGGGTGTTAGGAAAGAGAGAAAGTCGGAGCGGAGTGTGTGGTGAAGTGAGAGAAAGAAAGAAGGCTGAATTTTCGTTAAGCTGCTCAAATGCCTGCTTTAACAAAAGTCTGCCAGGGCTAGAGGTGATTAGCCATCAGTGCTGCTGCTGTTTTTGCTGTCG

Test system: GSC7 cells
Experiment: Nano-Glo Dual-Luciferase Reporter (Nanoglo DLR) assay of enhancer activity, fold change to mCMV
Format: cell-based, human
Settings: expression fold change of the individual enhancer compared to mCMV
From the text: We chose an arrayed library format, with 160 bp enhancer fragments individually cloned into separate plasmids and arrayed in 96 well plates. These 160 bp were synthesized as a single pool of oligos, then randomly cloned into the plasmid and isolated. 20 bp×2 were needed for PCR amplification of the pool and so a library of 200 bp fragments was synthesized (Twist Biosciences). To meet our oligo synthesis strategy, ChIP-seq peaks expressed by GSCs were merged into a single oligo. This oligonucleotide pool was PCR-amplified (using limited cycles to reduce bias and ‘jackpot’ products meaning products which are easier to amplify will overtake the oligonucleotide pool) and cloned into the expression vector by an efficient Golden Gate reaction. 4579 individual plasmids were then randomly picked, isolated and plated as an arrayed plasmid DNA library on 96 well plates (×48). The bacterial colony picking and production of plasmid minipreps were supported by the Edinburgh Genome Foundry (S. Rosser). This library was then screened using the optimised Nanoglo DLR assay (Nano-Glo Dual-Luciferase Reporter Assay, Promega) in 384 well format. Each plate was transiently transfected together with PGK-FFLuc in a 1:10 ratio into GSC7 cells. 2 days later a Nanoglo DLR assay was performed and assayed on a plate reader.
Cells were seeded in 384 well plates using a multidrop and transfected the following day using the CyBio Felix. Two days later the experiment was terminated with a Nanoglo DLR assay and all hits with a fold change to mCMV greater than 10 were Sanger sequenced and mapped back to the genome.
Cells were seeded at the required density. The following day the transfection was carried out. For this the Plus reagent and Lipofectamine LTX (Life Technologies, 15338030) were each diluted in half the volume of Opti-MEM I Reduced-Serum Medium (further referred to as Optimem) (Life Technologies, 31985062). Following this step, the Plus reagent/Optimem premix was added to all DNA samples followed by the Lipofectamine LTX/Optimem premix. The transfection mix was incubated for 5 min at room temperature and then carefully dropped on the cells. Generally, no media change was carried out. Cells were analysed two days following transfection.
This assay consists of two steps. The transfection was carried out using a normalisation plasmid PGK-Firefly-Luciferase (Promega, E5011) that was transfected in a 1/10 ratio with the plasmid of interest. First, the Firefly Luciferase activity is measured which allows to normalise to transfection efficiency. In a second step, the activity of Nanoluc is determined which is the readout of the plasmid of interest. Cells were washed 3× with PBS and 20 μl was left in the 96 well plate after the final wash (25 μl in 384 well). Oneglo buffer was added and the plate was shaken for 5 min at 480 rpm to allow cell lysis. 20 μl cell lysate in 96 well format or 25 μl cell lysate in 384 well format was then transferred into the corresponding opaque white plate and luminescence was measured at for 0.1 s per well using the Ensight Multimode Plate Reader. For the following Nanoluc reaction in a 96 well format 2 μl cell lysate was transferred into an opaque white plate containing 40 μl PBS, and 20 μl Stopglo buffer, supplemented with substrate, was added to each well. In a 384 well format 20 μl Stopglo buffer containing substrate were added on top of the undiluted cell lysate. The plate was shaken again for 5 min at 480 rpm to quench the firefly luciferase reaction and ensure good mixing. Nanoluc activity was measured for 0.1 s per well, again using Ensight Multimode Plate Reader.
Data obtained by the Nanoluc reaction was normalised to Firefly reaction to account for well-to-well variability of transfection efficiency. Normalised data were used to calculate the fold change to the empty vector control mCMV.

Row | Molecule | Fold change (Median) [fold]
1 | B1 | 26.4
2 | B2 | 145.9
3 | B3 | 25.1
4 | B4 | 24.9
5 | B5 | 24.9
6 | B6 | 25.2
7 | B7 | 14.54
8 | B8 | 116.4
9 | B9 | 20.7
10 | B10 | 26.2
11 | B11 | 21.2
12 | B12 | 45.5
